This data set can be described thus: protein stability index of a GFP-peptide fusion (yeast GPS) (PSI 1-4); higher = more stable; sorted into four equal gates, so the index is relative within each strain. Put shortly: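 Mid-log yeast cultures in leucine-free medium, carrying a pooled plasmid library, were sorted into four equal gates by their GFP/Cherry fluorescence ratio. Each plasmid expressed Cherry along with GFP fused upstream of a tiled 17-residue yeast protein peptide. Plasmids recovered from each gate were PCR-amplified and Illumina-sequenced, with reads assigned to strains by barcodes. The protein stability index was obtained by summing each gate's read frequency weighted by its gate number.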

± gives the uncertainty stated by the source.

In turn, FGELQFAFLNAMFFGNY [AAR2] displayed a protein stability index (doa10∆) of 2.87 ± 0.069, a protein stability index (pdr5∆) of 2.61 ± 0.085, a protein stability index (san1∆) of 2.94 ± 0.067 and a protein stability index (ubr1∆) of 3 ± 0.064.
The like results for FGNSLSNTVNANNYSSN [YDL088C/ASM4] were, in that order, 2.94 ± 0.084, 3 ± 0.09, 3.08 ± 0.072 and 3.18 ± 0.056.
The matching figures for FGNSSPQLTFTHVANFM [YML103C/NUP188]: 2.97 ± 0.096, 3.03 ± 0.08, 3.04 ± 0.054 and 2.92 ± 0.052.
The like results for FGTGQSTFGFNNSAPNN [YJL041W/NSP1] were, in that order, 3.17 ± 0.046, 3.29 ± 0.051, 3.1 ± 0.04 and 3.3 ± 0.036.
Regarding FHAEPSGTFYRYNAKAI [PUP2], the protein stability index runs as follows: (doa10∆) 2.79 ± 0.15; (pdr5∆) 1.81 ± 0.13; (san1∆) 2.87 ± 0.059; (ubr1∆) 1.67 ± 0.077.
The like results for FHFRAPSRIFYKALRGM [RPL16A] were, in that order, 1.97 ± 0.24, 2.4 ± 0.18, 2.27 ± 0.14 and 2.43 ± 0.14.
The matching figures for FIGRLPIMLRSKNCYLS [RPB2]: 1.43 ± 0.072, 1.58 ± 0.081, 1.17 ± 0.14 and 1.19 ± 0.054.
The like results for FISAARYKPKSHLWEID [RPC37] were, in that order, 3.02 ± 0.11, 3.06 ± 0.082, 2.71 ± 0.067 and 3.11 ± 0.069.
On to FIYGEDGMDAAHIEKQS [RPO21], for which the protein stability index runs as follows: (doa10∆) 3.31 ± 0.069; (pdr5∆) 3.29 ± 0.084; (san1∆) 3.38 ± 0.054; (ubr1∆) 3.36 ± 0.043.
The like results for FKERQMMVSYPKIDEDD [AAR2] were, in that order, 3.28 ± 0.061, 3.2 ± 0.055, 3.19 ± 0.045 and 3.35 ± 0.043.
The matching figures for FKKTLRSRISSPHGLIN [SRB4]: 2.09 ± 0.049, 2.15 ± 0.056, 2.53 ± 0.065 and 2.15 ± 0.042.
For FKQKLNELLKCKDDVQL [MTW1], the protein stability index is, setting by setting: (doa10∆) 2.93 ± 0.054; (pdr5∆) 2.96 ± 0.049; (san1∆) 2.87 ± 0.036; (ubr1∆) 3 ± 0.039.
For FKSTESNISDEKSRISE [YMR129W/POM152], the protein stability index was found to be 3.3 ± 0.2 (doa10∆), 3.01 ± 0.16 (pdr5∆), 2.78 ± 0.12 (san1∆) and 3.05 ± 0.17 (ubr1∆).
In the case of FKYRKARLEPGTAIGAI [RPO31], the protein stability index reads like this: (doa10∆) 2.73 ± 0.16; (pdr5∆) 1.99 ± 0.092; (san1∆) 2.17 ± 0.1; (ubr1∆) 2.33 ± 0.057.
The like results for FLESSKEIDPSQTTQLA [FAS2] were, in that order, 2.89 ± 0.11, 3 ± 0.085, 2.6 ± 0.084 and 2.42 ± 0.14.
As to FLHESSFDSIDHSWFLL [CSI1], the protein stability index reads like this: (doa10∆) 2.67 ± 0.075; (pdr5∆) 2.93 ± 0.061; (san1∆) 2.48 ± 0.072; (ubr1∆) 2.87 ± 0.044.
FLKKNIIKENVKVARLA [FAS1] yielded a protein stability index (pdr5∆) of 1.56 ± 0.26.
Take FLKKVMDTIQDKLINDV [ECM29]: the protein stability index is 3.08 ± 0.16 (doa10∆), 3.58 ± 0.2 (pdr5∆), 2.95 ± 0.2 (san1∆) and 3.34 ± 0.15 (ubr1∆).
The like results for FLLLAVNKYGLRADKLY [ISW2] were, in that order, 3.05 ± 0.078, 2.5 ± 0.075, 2.62 ± 0.055 and 2.93 ± 0.059.
The matching figures for FLPRKRAASIRARVKAF [RPL3]: 1.16 ± 0.045, 1.18 ± 0.064, 1.15 ± 0.11 and 1.17 ± 0.051.
The like results for FLQGESPFSITFSVYHE [YMR129W/POM152] were, in that order, 2.4 ± 0.073, 2.08 ± 0.056, 2.64 ± 0.047 and 2.36 ± 0.052.
Consider FLQPLLLVGLIKTFYWL [NUT1], for which the protein stability index came out at 1.8 ± 0.051 (doa10∆), 2.3 ± 0.062 (pdr5∆), 1.5 ± 0.089 (san1∆) and 1.8 ± 0.051 (ubr1∆).
Regarding FLTPMDSIDLAPNTLTN [YML103C/NUP188], the protein stability index stood at 1.51 ± 0.18 (doa10∆), 1.68 ± 0.1 (pdr5∆), 1.98 ± 0.18 (san1∆) and 1.26 ± 0.082 (ubr1∆).
The like results for FLVRYACEPTAEKFVPI [SIR3] were, in that order, 2.55 ± 0.23, 2.9 ± 0.097, 2.75 ± 0.11 and 2.91 ± 0.1.
The matching figures for FLYVLIPAGIYWYWWKN [QCR8]: 1.93 ± 0.11, 1.33 ± 0.13, 1.62 ± 0.21 and 1.35 ± 0.27.

(Values after the supplement of paper PMC9732359.)
